Assay results from paper PMC10076317, “Extended DNA threading through a dual-engine motor module of the activating signal co-integrator 1 complex” (Nature Communications, 2023).
Values belong to the binder of their own block, whether it stands above or below them.

Assays:
[1] = molecular target: T1, ASCC3 helicase region (ASCC3^HR, residues 401-2202) (human, UniProt Q8N3C0 401-2202); test: SEC; analytical SEC for competitive binding, Superdex 200 3.2/300; 120 pmol ASCC3^HR with 360 pmol TRIP4 and/or ALKBH3 in 100 µl, 30 min on ice; fractions by SDS-PAGE, Coomassie; conditions: both partners purified
T1 construct: source: High Five cells via recombinant baculovirus, purified (Ni-NTA, TEV, heparin, SEC); also co-produced with TRIP4 in High Five cells; not shown: His10, N-terminal, cleaved
T1 sequence (Q8N3C0 401-2202): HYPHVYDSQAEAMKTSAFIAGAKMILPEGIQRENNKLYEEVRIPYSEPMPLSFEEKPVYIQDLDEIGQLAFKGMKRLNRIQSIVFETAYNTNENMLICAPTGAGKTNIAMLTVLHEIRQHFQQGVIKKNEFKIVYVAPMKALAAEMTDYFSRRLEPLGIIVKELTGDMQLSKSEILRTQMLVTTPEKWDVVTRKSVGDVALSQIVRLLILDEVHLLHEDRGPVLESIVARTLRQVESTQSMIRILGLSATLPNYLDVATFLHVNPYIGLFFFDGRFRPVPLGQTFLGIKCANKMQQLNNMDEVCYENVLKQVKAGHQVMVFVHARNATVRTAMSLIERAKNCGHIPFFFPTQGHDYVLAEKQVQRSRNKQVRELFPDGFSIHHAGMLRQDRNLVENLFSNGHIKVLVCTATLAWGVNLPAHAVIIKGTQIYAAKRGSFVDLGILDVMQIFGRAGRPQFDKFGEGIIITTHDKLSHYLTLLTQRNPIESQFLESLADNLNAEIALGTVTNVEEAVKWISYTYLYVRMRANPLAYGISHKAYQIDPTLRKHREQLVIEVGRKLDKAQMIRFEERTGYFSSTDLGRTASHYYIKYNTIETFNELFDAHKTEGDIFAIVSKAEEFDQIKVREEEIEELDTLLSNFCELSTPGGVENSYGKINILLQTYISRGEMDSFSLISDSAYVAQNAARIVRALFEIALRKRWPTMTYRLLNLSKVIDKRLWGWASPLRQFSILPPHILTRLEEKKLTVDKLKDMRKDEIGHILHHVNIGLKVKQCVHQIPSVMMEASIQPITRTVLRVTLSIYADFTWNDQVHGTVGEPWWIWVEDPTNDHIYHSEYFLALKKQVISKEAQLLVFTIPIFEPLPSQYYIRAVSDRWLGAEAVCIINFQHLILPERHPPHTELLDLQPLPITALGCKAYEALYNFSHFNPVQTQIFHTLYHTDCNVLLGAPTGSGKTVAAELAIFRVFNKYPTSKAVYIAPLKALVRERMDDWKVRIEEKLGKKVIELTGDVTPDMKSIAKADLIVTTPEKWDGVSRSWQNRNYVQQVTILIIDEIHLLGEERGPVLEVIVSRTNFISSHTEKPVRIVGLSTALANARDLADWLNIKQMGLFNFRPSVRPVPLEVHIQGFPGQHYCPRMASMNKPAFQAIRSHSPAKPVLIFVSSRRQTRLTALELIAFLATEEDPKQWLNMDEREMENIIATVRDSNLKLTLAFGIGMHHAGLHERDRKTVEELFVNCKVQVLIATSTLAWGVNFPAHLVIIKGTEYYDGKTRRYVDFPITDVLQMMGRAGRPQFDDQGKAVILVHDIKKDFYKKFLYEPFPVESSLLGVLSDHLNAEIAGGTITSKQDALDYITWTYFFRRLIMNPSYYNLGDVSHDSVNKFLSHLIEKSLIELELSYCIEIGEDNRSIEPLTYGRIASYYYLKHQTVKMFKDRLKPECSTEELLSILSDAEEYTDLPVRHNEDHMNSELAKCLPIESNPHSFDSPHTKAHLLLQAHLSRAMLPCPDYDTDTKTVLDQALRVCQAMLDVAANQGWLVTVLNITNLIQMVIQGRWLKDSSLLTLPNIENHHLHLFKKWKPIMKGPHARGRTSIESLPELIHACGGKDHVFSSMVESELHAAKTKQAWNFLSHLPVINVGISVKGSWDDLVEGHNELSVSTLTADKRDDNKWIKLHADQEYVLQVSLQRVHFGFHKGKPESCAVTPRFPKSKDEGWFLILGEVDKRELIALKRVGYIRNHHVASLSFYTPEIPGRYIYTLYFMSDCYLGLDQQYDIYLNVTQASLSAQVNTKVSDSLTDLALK

ASCC3HR = ASCC3HR (human, UniProt Q8N3C0 401-2202); test: MST; no ATP; Hill fit EC50; MST: 20 mM HEPES-NaOH pH 7.5, 300 mM NaCl, 5% glycerol, 1 mM DTT, room temperature, 50 nM final Cy5-T48; UV cross-linking: 50 mM HEPES-NaOH pH 7.5, 80 mM NaCl; conditions: protein: recombinant; tags: N-terminal His10, TEV-cleaved; label: 5'-Cy5; single strand
ASCC3HR, sequence (Q8N3C0 401-2202): as above

TRIP4 = molecular target: T2, TRIP4 (UniProt Q15650 1-581); test: as above; conditions: protein: recombinant; tags: N-terminal His6, TEV-cleaved; label: 5'-Cy5; single strand
T2 sequence: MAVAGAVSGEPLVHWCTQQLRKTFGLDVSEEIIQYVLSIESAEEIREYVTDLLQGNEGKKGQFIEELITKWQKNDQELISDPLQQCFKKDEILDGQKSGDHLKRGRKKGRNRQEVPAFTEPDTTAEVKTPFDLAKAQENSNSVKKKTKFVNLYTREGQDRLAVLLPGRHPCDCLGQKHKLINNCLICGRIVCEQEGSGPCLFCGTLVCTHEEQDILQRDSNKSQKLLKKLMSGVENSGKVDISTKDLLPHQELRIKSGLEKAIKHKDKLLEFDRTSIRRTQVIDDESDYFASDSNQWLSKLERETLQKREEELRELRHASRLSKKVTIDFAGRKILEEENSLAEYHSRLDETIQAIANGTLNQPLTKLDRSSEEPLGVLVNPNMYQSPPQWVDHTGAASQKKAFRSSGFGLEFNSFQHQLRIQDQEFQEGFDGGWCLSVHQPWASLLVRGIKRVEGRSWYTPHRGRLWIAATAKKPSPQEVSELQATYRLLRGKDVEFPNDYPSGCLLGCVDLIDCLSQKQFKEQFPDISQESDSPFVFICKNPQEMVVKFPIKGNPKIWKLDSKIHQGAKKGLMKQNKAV

ASCC3HR;TRIP4 = ASCC3HR;TRIP4 (human;human?, UniProt Q8N3C0;Q15650 401-2202;1-581, |); test: as above; conditions: protein: recombinant;recombinant; tags: N-terminal His10, TEV-cleaved;N-terminal His6, TEV-cleaved; copies: 1;1; label: 5'-Cy5; single strand
ASCC3HR;TRIP4, sequence (Q8N3C0 401-2202, one chain of several): as the sequence (Q8N3C0 401-2202) above

ASCC3HR;TRIP4 1-230 = ASCC3HR;TRIP4 1-230 (human;human?, UniProt Q8N3C0;Q15650 401-2202;1-230, |); test: as above; conditions: protein: recombinant;recombinant; tags: N-terminal His10, TEV-cleaved;N-terminal His6, TEV-cleaved; copies: 1;1; label: 5'-Cy5; single strand
ASCC3HR;TRIP4 1-230, sequence (Q8N3C0 401-2202, one chain of several): as the sequence (Q8N3C0 401-2202) above

[2] = molecular target: T1, ASCC3 helicase region (ASCC3^HR, …); test: SEC; analytical SEC, Superdex 200 3.2/300; 20 mM HEPES-NaOH pH 7.5, 250 mM NaCl, 5% glycerol, 1 mM DTT; 100 pmol ASCC3^HR mixed with other proteins in two to tenfold molar excess in 80 µl, 30 min on ice; fractions by SDS-PAGE; conditions: both partners purified
[3] = molecular target: T1, ASCC3 helicase region (ASCC3^HR, …); test: cell-based or functional assay

- binding result [1]: binds
B1: ALKBH3 (alpha-ketoglutarate/iron-dependent dioxygenase, DNA/RNA dealkylase), full length (enzyme, human, UniProt Q96Q83 1-286, looked up)
chain: MEEKRRRARVQGAWAAPVKSQAIAQPATTAKSHLHQKPGQTWKNKEHHLSDREFVFKEPQQVVRRAPEPRVIDREGVYEISLSPTGVSRVCLYPGFVDVKEADWILEQLCQDVPWKQRTGIREDITYQQPRLTAWYGELPYTYSRITMEPNPHWHPVLRTLKNRIEENTGHTFNSLLCNLYRNEKDSVDWHSDDEPSLGRCPIIASLSFGATRTFEMRKKPPPEENGDYTYVERVKIPLDHGTLLIMEGATQADWQHRVPKEYHSREPRVNLTFRTVYPDPRGAPW
notes: ALKBH3, human, full length, amplified from a cDNA library of human HeLa cells, pETM-11; source: E. coli C2566, purified (Ni-NTA, TEV, heparin, SEC); not shown: His6, N-terminal, cleaved

Binder: TTTTTTTTTTTTTTTTTTTTTTTTTTTTTTTTTTTTTTTTTTTTTTTT (ssDNA) [T48 (Cy5)]
- apparent K (half saturation) (ASCC3HR): 551 ± 194 nM
- apparent K (half saturation) (TRIP4): 903 ± 24 nM
- apparent K (half saturation) (ASCC3HR;TRIP4): 53 ± 3 nM
- apparent K (half saturation) (ASCC3HR;TRIP4 1-230): 468 ± 63 nM

- binding result [2]: binds
B2: TRIP4^152-581 (domain or fragment, human, UniProt Q15650 152-581, looked up)
chain: LYTREGQDRLAVLLPGRHPCDCLGQKHKLINNCLICGRIVCEQEGSGPCLFCGTLVCTHEEQDILQRDSNKSQKLLKKLMSGVENSGKVDISTKDLLPHQELRIKSGLEKAIKHKDKLLEFDRTSIRRTQVIDDESDYFASDSNQWLSKLERETLQKREEELRELRHASRLSKKVTIDFAGRKILEEENSLAEYHSRLDETIQAIANGTLNQPLTKLDRSSEEPLGVLVNPNMYQSPPQWVDHTGAASQKKAFRSSGFGLEFNSFQHQLRIQDQEFQEGFDGGWCLSVHQPWASLLVRGIKRVEGRSWYTPHRGRLWIAATAKKPSPQEVSELQATYRLLRGKDVEFPNDYPSGCLLGCVDLIDCLSQKQFKEQFPDISQESDSPFVFICKNPQEMVVKFPIKGNPKIWKLDSKIHQGAKKGLMKQNKAV
notes: source: E. coli BL21 (DE3), purified (Ni-NTA, TEV, heparin, SEC); not shown: His6, N-terminal, cleaved

- amplitude-weighted DNA unwinding rate constant (kuaw) of ASCC3^HR with TRIP4, stopped-flow fluorescence, no trap (ASCC3^HR alone 0.024 s^-1; stimulated 2.3-fold) [3]: 0.054 s⁻¹
B3: TRIP4, full length, co-produced with ASCC3^HR in insect cells (natural protein, human, UniProt Q15650 1-581, looked up)
chain: T2 sequence

- binding result [2]: binds
B4: TRIP4^152-230 (domain or fragment, human, UniProt Q15650 152-230, looked up)
chain: LYTREGQDRLAVLLPGRHPCDCLGQKHKLINNCLICGRIVCEQEGSGPCLFCGTLVCTHEEQDILQRDSNKSQKLLKKL
notes: TRIP4, human, residues 152-230 (ZnF domain); also called ZnF domain alone; source: E. coli BL21 (DE3), purified (Ni-NTA, TEV, SEC); not shown: His6, N-terminal, cleaved
